Data from PMC300677.

Target: isolated iron-loaded transferrin C-lobe (Fe-C-lobe)
Experiment: biosensor binding assay (SPR), equilibrium analysis

Kd (KD1) | ratio to parent (KD1) | Kd (KD2) | ratio to parent (KD2) | ratio to parent (KD1, KD2 relative to wild-type, single entry) | Substance
1 µM | 1.2 | 2.6 µM | 0.8 |  | soluble human transferrin receptor 1 (TfR) ectodomain, wild type (from UniProt P02786) D125K
0.8 µM | 1 | 5.7 µM | 1.7 |  | soluble human transferrin receptor 1 (TfR) ectodomain, wild type (from UniProt P02786) Y123S
1.9 µM | 2.4 | 2.7 µM | 0.8 |  | soluble human transferrin receptor 1 (TfR) ectodomain, wild type (from UniProt P02786) F760A
 |  |  |  | > 1000 | soluble human transferrin receptor 1 (TfR) ectodomain, wild type (from UniProt P02786) R651A
